This note sets out measurements from patent US20210292414A1 (H LUNDBECK A S, published 2021).

Like-named read-outs stand apart in the source and are kept apart here.

What all share (assay): BLI (Octet384RED)
The target in assay [1] is T1, Sortilin SORTECDBAP_tetra (tetraodon).
T1 construct: Fully tetraodon Sortilin ECD with BAP tag; also called tetraodon; tetraodon Sortilin
T1 chain: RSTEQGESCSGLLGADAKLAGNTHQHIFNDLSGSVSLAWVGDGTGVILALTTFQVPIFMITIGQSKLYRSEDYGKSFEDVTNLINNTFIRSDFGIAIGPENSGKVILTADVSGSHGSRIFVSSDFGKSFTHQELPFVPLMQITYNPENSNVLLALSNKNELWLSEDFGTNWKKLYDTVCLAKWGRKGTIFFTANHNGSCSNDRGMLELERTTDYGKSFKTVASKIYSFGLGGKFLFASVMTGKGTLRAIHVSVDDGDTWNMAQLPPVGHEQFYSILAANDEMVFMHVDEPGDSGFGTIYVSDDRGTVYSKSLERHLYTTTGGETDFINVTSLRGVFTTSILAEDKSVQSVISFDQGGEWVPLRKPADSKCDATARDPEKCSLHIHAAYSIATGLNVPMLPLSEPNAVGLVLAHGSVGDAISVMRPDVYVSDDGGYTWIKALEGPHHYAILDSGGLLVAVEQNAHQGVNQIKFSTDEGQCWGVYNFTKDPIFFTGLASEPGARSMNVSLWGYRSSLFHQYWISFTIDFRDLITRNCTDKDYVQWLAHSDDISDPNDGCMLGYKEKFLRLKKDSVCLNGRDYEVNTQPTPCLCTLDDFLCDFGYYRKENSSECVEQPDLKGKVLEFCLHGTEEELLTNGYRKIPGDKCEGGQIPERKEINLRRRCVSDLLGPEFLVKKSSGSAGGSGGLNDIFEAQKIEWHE

Assay [2] concerns the target T2, hBack.
T2 chimeric human/tetraodon Sortilin extracellular region, BAP tag: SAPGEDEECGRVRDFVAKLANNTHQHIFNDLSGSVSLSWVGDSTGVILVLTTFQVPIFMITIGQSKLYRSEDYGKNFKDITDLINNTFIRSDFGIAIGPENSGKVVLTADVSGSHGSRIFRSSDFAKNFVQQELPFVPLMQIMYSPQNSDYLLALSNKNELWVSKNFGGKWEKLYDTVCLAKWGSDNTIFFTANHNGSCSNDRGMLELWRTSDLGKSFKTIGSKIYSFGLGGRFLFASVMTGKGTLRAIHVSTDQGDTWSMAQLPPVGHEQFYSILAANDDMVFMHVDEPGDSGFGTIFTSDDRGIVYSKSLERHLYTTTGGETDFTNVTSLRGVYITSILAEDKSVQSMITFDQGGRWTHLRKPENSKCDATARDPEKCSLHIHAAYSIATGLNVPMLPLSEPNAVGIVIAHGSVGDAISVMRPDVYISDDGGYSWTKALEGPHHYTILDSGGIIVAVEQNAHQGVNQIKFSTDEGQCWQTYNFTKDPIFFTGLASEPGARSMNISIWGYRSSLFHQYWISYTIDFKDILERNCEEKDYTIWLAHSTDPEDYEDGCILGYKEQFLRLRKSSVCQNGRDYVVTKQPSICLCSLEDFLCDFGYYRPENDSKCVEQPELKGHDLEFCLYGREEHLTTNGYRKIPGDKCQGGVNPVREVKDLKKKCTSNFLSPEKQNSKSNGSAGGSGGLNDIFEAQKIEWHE

Assay [3] has as its target T3, Sortilin SORTECDBAP_hB01-05 (human/tetraodon chimera).
T3 construct: Shuffle construct: chimeric human/tetraodon Sortilin ECD with BAP tag
T3 chain: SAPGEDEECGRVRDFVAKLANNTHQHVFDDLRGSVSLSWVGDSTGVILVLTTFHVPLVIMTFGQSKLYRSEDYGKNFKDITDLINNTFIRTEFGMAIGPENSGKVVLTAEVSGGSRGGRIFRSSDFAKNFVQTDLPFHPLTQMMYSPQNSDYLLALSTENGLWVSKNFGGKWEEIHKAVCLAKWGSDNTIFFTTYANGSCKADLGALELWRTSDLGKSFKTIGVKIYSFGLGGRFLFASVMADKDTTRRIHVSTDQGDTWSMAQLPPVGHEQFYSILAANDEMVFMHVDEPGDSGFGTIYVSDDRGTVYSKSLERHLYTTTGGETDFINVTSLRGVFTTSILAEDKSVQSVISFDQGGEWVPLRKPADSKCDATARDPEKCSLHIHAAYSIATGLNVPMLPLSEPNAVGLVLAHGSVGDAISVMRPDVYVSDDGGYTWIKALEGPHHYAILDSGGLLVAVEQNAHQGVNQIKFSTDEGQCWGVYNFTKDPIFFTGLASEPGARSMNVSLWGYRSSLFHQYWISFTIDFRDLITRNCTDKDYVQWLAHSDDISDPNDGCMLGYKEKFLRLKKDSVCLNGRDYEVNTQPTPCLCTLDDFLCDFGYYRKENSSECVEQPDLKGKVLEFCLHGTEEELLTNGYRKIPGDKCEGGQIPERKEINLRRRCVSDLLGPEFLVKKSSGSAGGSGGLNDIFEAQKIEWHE

The target in assay [4] is T4, Sortilin SORTECDBAP_hB12390 (human/tetraodon chimera).
T4 construct: Shuffle construct: chimeric human/tetraodon Sortilin ECD with BAP tag
T4 chain: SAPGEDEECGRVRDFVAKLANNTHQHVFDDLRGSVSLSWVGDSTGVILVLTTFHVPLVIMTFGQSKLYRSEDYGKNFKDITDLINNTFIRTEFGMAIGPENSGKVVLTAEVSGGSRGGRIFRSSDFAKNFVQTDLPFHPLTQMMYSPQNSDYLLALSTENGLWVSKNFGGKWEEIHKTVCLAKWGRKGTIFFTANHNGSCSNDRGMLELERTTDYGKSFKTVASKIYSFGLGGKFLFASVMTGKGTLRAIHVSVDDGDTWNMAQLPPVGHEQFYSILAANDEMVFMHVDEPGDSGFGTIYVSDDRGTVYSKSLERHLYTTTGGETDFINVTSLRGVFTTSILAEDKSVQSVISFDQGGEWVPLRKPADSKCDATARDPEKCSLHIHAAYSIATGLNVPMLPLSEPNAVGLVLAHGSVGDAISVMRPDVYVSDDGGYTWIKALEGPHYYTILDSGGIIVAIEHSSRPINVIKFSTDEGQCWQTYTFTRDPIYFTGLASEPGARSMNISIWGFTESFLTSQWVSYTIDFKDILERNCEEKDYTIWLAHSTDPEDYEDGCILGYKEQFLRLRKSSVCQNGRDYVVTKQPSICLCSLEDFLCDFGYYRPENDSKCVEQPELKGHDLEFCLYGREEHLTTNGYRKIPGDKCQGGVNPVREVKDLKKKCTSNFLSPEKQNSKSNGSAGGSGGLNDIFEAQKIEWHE

Assay [5] addresses T1, Sortilin SORTECDBAP_tetra.
The target of assay [6] is T2, hBack.
The target in assay [7] is T3, Sortilin SORTECDBAP_hB01-05.
Assay [8] concerns the target T4, Sortilin SORTECDBAP_hB12390.

B1: Antibody 6003-936 (antibody, human IgG1, V domains shown)
VH: EVQLVQSGAEVKKPGESLKISCKGSGYIFTSFWIGWVRQMPGKGLEWMGIIYPGDSDTRYSPSFQGQVTISADKSISTAYLQWSSLKASDTAMYYCARHSRGSFWYGAFQHWGQGTLVTVSS
VL: EIVLTQSPDFQSVTPKEKVTITCRASQSIGSSLHWYQQKPDQSPKLLIKYASQSFSGVPSRFSGSGSGTDFTLTINSLEAEDAAAYYCHQSSSLPHTFGPGTKVDIK
For the molecule B1, the binding result in assay [1] and in assay [3] was “no binding” each time. Moreover, the figures for the EC50 (with hBack [2]; in assay [4]) were 2.62 ng/mL and 11.4 ng/mL, respectively.

B2: Antibody 6003-471 (antibody, V domains shown)
VH: QVQLVQSGAEVKKPGSSVKVSCKASGGTFSNYAISWVRQAPGQGLEWMGRIIPIFGIANYAQKFQGRVTITADKSTSTAYMELSSLRSEDTAVYYCARDRRGFSGYEVFDYWGQGTLVTVSS
VL: DIQMTQSPSSLSASVGDRVTITCRASQGISSWLAWYQQKPEKAPKSLIYATSSLQSGVPSRFSGSGSGTDFTLTISSLQPEDFATYYCQQYNSYPITFGQGTRLEIK
Turning to B2, the binding result in assay [5] and in assay [7] was “no binding” in each case. In addition, the figures for the EC50 (with hBack [6]; in assay [8]) were 2.54 ng/mL and 3.16 ng/mL, respectively.

B3: Antibody 6003-423 (antibody, human IgG1, V domains shown)
VH: EVQLLESGGGLVQPGGSLRLSCEASGFTFRSYVMSWVRQAPGKGLEWVSTISGGGGNTNYTDSVKGRFTISRDNSKNTLYLQMNSLRAEDTAVYYCAKNWGSGFDYWGQGTLVTVSS
VL: EIVLTQSPATLSLSPGERATLSCRASQSVSSYLAWYQQKPGQAPRLLIYDASNRATGIPARFSGSGSGTDFTLTISSLEPEDFAVYYCQQRSNWLIFTFGPGTKVDIK
In the case of B3, the binding result in assay [5] and in assay [7] was “no binding” each time. Further, the EC50 with hBack [6] stood at 4 ng/mL; in assay [8] it was 3.55 ng/mL.

One may read the EC50 as the concentration needed to bring the measured effect to its halfway point.
